The target in data set [1] is Factor X (FX), substrate zymogen, P00742.
Data set [2] deals with antithrombin III (plasma purified human AT-III), in complex with unfractionated heparin.
The target in data set [3] is plasma purified human antithrombin III (AT-III) in complex with unfractionated heparin (AT-III/UFH).
Data set [4] has as its target Antithrombin III (plasma purified human AT-III, Molecular Innovations), as AT-III/UFH complex.
Data set [5] deals with plasma purified human AT-III (antithrombin III), in complex with full-length unfractionated heparin (AT-III/UFH).

The text below walks through data of US20210230570.

Factor X (FX), substrate zymogen, P00742, sequence (P00742 whole entry, looked up): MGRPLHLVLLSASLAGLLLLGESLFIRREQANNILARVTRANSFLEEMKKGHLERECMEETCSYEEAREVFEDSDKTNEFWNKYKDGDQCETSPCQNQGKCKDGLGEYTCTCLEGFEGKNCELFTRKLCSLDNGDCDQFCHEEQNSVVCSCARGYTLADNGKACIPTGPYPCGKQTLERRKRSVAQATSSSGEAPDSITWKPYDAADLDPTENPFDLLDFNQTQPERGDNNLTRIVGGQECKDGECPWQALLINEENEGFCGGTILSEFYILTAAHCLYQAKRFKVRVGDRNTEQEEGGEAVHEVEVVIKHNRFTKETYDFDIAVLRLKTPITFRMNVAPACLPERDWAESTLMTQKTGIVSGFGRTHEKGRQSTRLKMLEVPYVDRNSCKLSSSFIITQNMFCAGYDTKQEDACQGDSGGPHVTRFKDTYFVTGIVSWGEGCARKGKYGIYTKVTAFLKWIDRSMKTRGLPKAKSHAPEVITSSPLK
Factor X (FX), P00742, sequence (P00742 whole entry, looked up): as above
Factor X, P00742, sequence (P00742 whole entry, looked up): as above

B1: FIXa-R318Y/R338E/R403E/E410N (protein)
chain 1: YNSGKLEEFVQGNLERECMEEKCSFEEAREVFENTERTTEFWKQYVDGDQCESNPCLNGGSCKDDINSYECWCPFGFEGKNCELDVTCNIKNGRCEQFCKNSADNKVVCSCTEGYRLAENQKSCEPAVPFPCGRVSVSQTSKLTR
chain 2: VVGGEDAKPGQFPWQVVLNGKVDAFCGGSIVNEKWIVTAAHCVETGVKITVVAGEHNIEETEHTEQKRNVIRIIPHHNYNAAINKYNHDIALLELDEPLVLNSYVTPICIADKEYTNIFLKFGSGYVSGWGRVFHKGYSALVLQYLRVPLVDRATCLESTKFTIYNNMFCAGFHEGGRDSCQGDSGGPHVTEVEGTSFLTGIISWGEECAMKGKYGIYTKVSEYVNWIKNKTKLT
B1: the kcat/KM (M^-1s^-1), FX activation by FIXa in the Xase complex with Factor X (FX), P00742 worked out at 1.5e+08 M⁻¹ s⁻¹. Moreover, the “catalytic activity (kcat/KM) for activation of FX in the Xase complex (FVIIIa, PC/PS vesicles, Ca2+), fluorogenic FXa read-out” value (“catalytic activity (kcat/KM)” below) in data set [1] was “displayed some of the greatest increases in catalytic activity”. Further, the KM (Catalytic activity of FIXa variants) with Factor X, P00742 worked out at 0.0455 µM. This protein also came in with a K0.5 in data set [2] of 5.88 µM.

B2: FIXa-R318Y/R338E/E410N (protein)
chain 1: YNSGKLEEFVQGNLERECMEEKCSFEEAREVFENTERTTEFWKQYVDGDQCESNPCLNGGSCKDDINSYECWCPFGFEGKNCELDVTCNIKNGRCEQFCKNSADNKVVCSCTEGYRLAENQKSCEPAVPFPCGRVSVSQTSKLTR
chain 2: VVGGEDAKPGQFPWQVVLNGKVDAFCGGSIVNEKWIVTAAHCVETGVKITVVAGEHNIEETEHTEQKRNVIRIIPHHNYNAAINKYNHDIALLELDEPLVLNSYVTPICIADKEYTNIFLKFGSGYVSGWGRVFHKGYSALVLQYLRVPLVDRATCLESTKFTIYNNMFCAGFHEGGRDSCQGDSGGPHVTEVEGTSFLTGIISWGEECAMKGKYGIYTKVSRYVNWIKNKTKLT
With B2, in the data set with Factor X (FX), P00742, the kcat/KM (M^-1s^-1), FX activation by FIXa in the Xase complex turned out to be 3.4e+08 M⁻¹ s⁻¹ and the kcat/KM for FX activation (Xase assay with FVIIIa, PC/PS vesicles, Ca2+) amounted to 3.4e+08 M⁻¹ s⁻¹. Moreover, the “catalytic activity (kcat/KM)” value in data set [1] is on record as “displayed some of the greatest increases in catalytic activity”. The KM (Catalytic activity of FIXa variants) with Factor X, P00742 worked out at 0.0142 µM. In data set [2], this protein had a K0.5 of 3.46 µM and a K0.5-mut/K0.5-wt of 179.

B3: FIXa A103N/N105S/R318Y/R338E/R403E/E410N (mature FIX numbering) (protein)
chain 1: YNSGKLEEFVQGNLERECMEEKCSFEEAREVFENTERTTEFWKQYVDGDQCESNPCLNGGSCKDDINSYECWCPFGFEGKNCELDVTCNIKNGRCEQFCKNSNDSKVVCSCTEGYRLAENQKSCEPAVPFPCGRVSVSQTSKLTR
chain 2: VVGGEDAKPGQFPWQVVLNGKVDAFCGGSIVNEKWIVTAAHCVETGVKITVVAGEHNIEETEHTEQKRNVIRIIPHHNYNAAINKYNHDIALLELDEPLVLNSYVTPICIADKEYTNIFLKFGSGYVSGWGRVFHKGYSALVLQYLRVPLVDRATCLESTKFTIYNNMFCAGFHEGGRDSCQGDSGGPHVTEVEGTSFLTGIISWGEECAMKGKYGIYTKVSEYVNWIKNKTKLT
Consider B3, for which the K0.5 in data set [3] came to 9.19 µM.

B4: FIXa-R318Y/R338E/T343R/R403E/E410N (protein)
chain 1: YNSGKLEEFVQGNLERECMEEKCSFEEAREVFENTERTTEFWKQYVDGDQCESNPCLNGGSCKDDINSYECWCPFGFEGKNCELDVTCNIKNGRCEQFCKNSADNKVVCSCTEGYRLAENQKSCEPAVPFPCGRVSVSQTSKLTR
chain 2: VVGGEDAKPGQFPWQVVLNGKVDAFCGGSIVNEKWIVTAAHCVETGVKITVVAGEHNIEETEHTEQKRNVIRIIPHHNYNAAINKYNHDIALLELDEPLVLNSYVTPICIADKEYTNIFLKFGSGYVSGWGRVFHKGYSALVLQYLRVPLVDRATCLESTKFRIYNNMFCAGFHEGGRDSCQGDSGGPHVTEVEGTSFLTGIISWGEECAMKGKYGIYTKVSEYVNWIKNKTKLT
In turn, B4 registered a K0.5-mut/K0.5-wt (against Catalyst Biosciences WT FIXa) in data set [4] of more than 517. In the data set with Factor X (FX), P00742, the KM – broadly, the concentration of substrate that gives half-maximal velocity – was 0.0247 µM; the KM (nM); Catalytic activity of FIXa variants (KM) is 22.3 nM; the kcat of FX activation by FIXa in the Xase complex (FVIIIa, PC/PS vesicles, Ca2+) amounted to 9.7 s⁻¹; the catalytic efficiency (kcat/KM) (as a rule, the second-order rate constant that governs catalysis at low substrate concentration) is 5.4e+08 M⁻¹ s⁻¹. In addition, the “catalytic activity (kcat/KM)” value in data set [1] is on record as “displayed some of the greatest increases in catalytic activity”.

B5: FIXa-K228N/K247N/N249S (protein)
chain 1: YNSGKLEEFVQGNLERECMEEKCSFEEAREVFENTERTTEFWKQYVDGDQCESNPCLNGGSCKDDINSYECWCPFGFEGKNCELDVTCNIKNGRCEQFCKNSADNKVVCSCTEGYRLAENQKSCEPAVPFPCGRVSVSQTSKLTR
chain 2: VVGGEDAKPGQFPWQVVLNGKVDAFCGGSIVNEKWIVTAAHCVETGVNITVVAGEHNIEETEHTEQNRSVIRIIPHHNYNAAINKYNHDIALLELDEPLVLNSYVTPICIADKEYTNIFLKFGSGYVSGWGRVFHKGRSALVLQYLRVPLVDRATCLRSTKFTIYNNMFCAGFHEGGRDSCQGDSGGPHVTEVEGTSFLTGIISWGEECAMKGKYGIYTKVSRYVNWIKEKTKLT
On to B5, for which, in data set [1], the “catalytic activity (kcat/KM)” value is listed as “demonstrated close to wild-type activity”. Also, in data set [5], the K0.5-mut/K0.5-wt (against Catalyst Biosciences WT FIXa) is 4.4.

B6: FIXa R318Y/R338E/R403E/E410N (mature FIX numbering) (protein)
chain 1: YNSGKLEEFVQGNLERECMEEKCSFEEAREVFENTERTTEFWKQYVDGDQCESNPCLNGGSCKDDINSYECWCPFGFEGKNCELDVTCNIKNGRCEQFCKNSADNKVVCSCTEGYRLAENQKSCEPAVPFPCGRVSVSQTSKLTR
chain 2: VVGGEDAKPGQFPWQVVLNGKVDAFCGGSIVNEKWIVTAAHCVETGVKITVVAGEHNIEETEHTEQKRNVIRIIPHHNYNAAINKYNHDIALLELDEPLVLNSYVTPICIADKEYTNIFLKFGSGYVSGWGRVFHKGYSALVLQYLRVPLVDRATCLESTKFTIYNNMFCAGFHEGGRDSCQGDSGGPHVTEVEGTSFLTGIISWGEECAMKGKYGIYTKVSEYVNWIKNKTKLT
On to B6, for which the K0.5 in data set [3] is 5.88 µM.

B7: FIXa-K247N/N249S/R318Y/R338E/T343R/R403E/E410N (protein)
chain 1: YNSGKLEEFVQGNLERECMEEKCSFEEAREVFENTERTTEFWKQYVDGDQCESNPCLNGGSCKDDINSYECWCPFGFEGKNCELDVTCNIKNGRCEQFCKNSADNKVVCSCTEGYRLAENQKSCEPAVPFPCGRVSVSQTSKLTR
chain 2: VVGGEDAKPGQFPWQVVLNGKVDAFCGGSIVNEKWIVTAAHCVETGVKITVVAGEHNIEETEHTEQNRSVIRIIPHHNYNAAINKYNHDIALLELDEPLVLNSYVTPICIADKEYTNIFLKFGSGYVSGWGRVFHKGYSALVLQYLRVPLVDRATCLESTKFRIYNNMFCAGFHEGGRDSCQGDSGGPHVTEVEGTSFLTGIISWGEECAMKGKYGIYTKVSEYVNWIKNKTKLT
On to B7, for which, in the data set with Factor X (FX), P00742, the KM was 0.0292 µM and the kcat of FX activation by FIXa in the Xase complex (FVIIIa, PC/PS vesicles, Ca2+) is 10.6 s⁻¹. In addition, in data set [1], the “catalytic activity (kcat/KM)” value is “improved activity when combined with other mutations”.

B8: FIXa-R318Y/R338E/Y345A/N346D/R403E/E410N (protein)
chain 1: YNSGKLEEFVQGNLERECMEEKCSFEEAREVFENTERTTEFWKQYVDGDQCESNPCLNGGSCKDDINSYECWCPFGFEGKNCELDVTCNIKNGRCEQFCKNSADNKVVCSCTEGYRLAENQKSCEPAVPFPCGRVSVSQTSKLTR
chain 2: VVGGEDAKPGQFPWQVVLNGKVDAFCGGSIVNEKWIVTAAHCVETGVKITVVAGEHNIEETEHTEQKRNVIRIIPHHNYNAAINKYNHDIALLELDEPLVLNSYVTPICIADKEYTNIFLKFGSGYVSGWGRVFHKGYSALVLQYLRVPLVDRATCLESTKFTIADNMFCAGFHEGGRDSCQGDSGGPHVTEVEGTSFLTGIISWGEECAMKGKYGIYTKVSEYVNWIKNKTKLT
On to B8, for which the K0.5-mut/K0.5-wt (against Catalyst Biosciences WT FIXa) in data set [4] is more than 517. Also, in the data set with Factor X (FX), P00742, the KM was 0.0565 µM and the kcat of FX activation by FIXa in the Xase complex (FVIIIa, PC/PS vesicles, Ca2+) amounted to 1.2 s⁻¹.

B9: FIXa-R318Y/R338E/T343R/E410N (protein)
chain 1: YNSGKLEEFVQGNLERECMEEKCSFEEAREVFENTERTTEFWKQYVDGDQCESNPCLNGGSCKDDINSYECWCPFGFEGKNCELDVTCNIKNGRCEQFCKNSADNKVVCSCTEGYRLAENQKSCEPAVPFPCGRVSVSQTSKLTR
chain 2: VVGGEDAKPGQFPWQVVLNGKVDAFCGGSIVNEKWIVTAAHCVETGVKITVVAGEHNIEETEHTEQKRNVIRIIPHHNYNAAINKYNHDIALLELDEPLVLNSYVTPICIADKEYTNIFLKFGSGYVSGWGRVFHKGYSALVLQYLRVPLVDRATCLESTKFRIYNNMFCAGFHEGGRDSCQGDSGGPHVTEVEGTSFLTGIISWGEECAMKGKYGIYTKVSRYVNWIKNKTKLT
For the protein B9, in the data set with Factor X (FX), P00742, the Michaelis-Menten constant (KM) came out at 0.0164 µM and the kcat of FX activation by FIXa in the Xase complex (FVIIIa, PC/PS vesicles, Ca2+) came out at 4.9 s⁻¹. Besides, the “catalytic activity (kcat/KM)” value in data set [1] is “displayed some of the greatest increases in catalytic activity”.

B10: FIXa-Y155F/R318Y/R338E/N346D/R403E/E410N (protein)
chain 1: YNSGKLEEFVQGNLERECMEEKCSFEEAREVFENTERTTEFWKQYVDGDQCESNPCLNGGSCKDDINSYECWCPFGFEGKNCELDVTCNIKNGRCEQFCKNSADNKVVCSCTEGYRLAENQKSCEPAVPFPCGRVSVSQTSKLTR
chain 2: VVGGEDAKPGQFPWQVVLNGKVDAFCGGSIVNEKWIVTAAHCVETGVKITVVAGEHNIEETEHTEQKRNVIRIIPHHNYNAAINKYNHDIALLELDEPLVLNSYVTPICIADKEYTNIFLKFGSGYVSGWGRVFHKGYSALVLQYLRVPLVDRATCLESTKFTIYDNMFCAGFHEGGRDSCQGDSGGPHVTEVEGTSFLTGIISWGEECAMKGKYGIYTKVSEYVNWIKNKTKLT
B10 yielded a K0.5-mut/K0.5-wt (against Catalyst Biosciences WT FIXa) in data set [4] of more than 517. For the same protein, in the data set with Factor X (FX), P00742, the KM (nM); Catalytic activity of FIXa variants (KM) was 100 nM and the kcat of FX activation by FIXa in the Xase complex (FVIIIa, PC/PS vesicles, Ca2+) was 6.4 s⁻¹. In addition, the K0.5-mut/K0.5-wt (against Catalyst Biosciences WT FIXa) in data set [5] was more than 517.

B11: FIXa-K247N/N249S/R338E/T343R/R403E (protein)
chain 1: YNSGKLEEFVQGNLERECMEEKCSFEEAREVFENTERTTEFWKQYVDGDQCESNPCLNGGSCKDDINSYECWCPFGFEGKNCELDVTCNIKNGRCEQFCKNSADNKVVCSCTEGYRLAENQKSCEPAVPFPCGRVSVSQTSKLTR
chain 2: VVGGEDAKPGQFPWQVVLNGKVDAFCGGSIVNEKWIVTAAHCVETGVKITVVAGEHNIEETEHTEQNRSVIRIIPHHNYNAAINKYNHDIALLELDEPLVLNSYVTPICIADKEYTNIFLKFGSGYVSGWGRVFHKGRSALVLQYLRVPLVDRATCLESTKFRIYNNMFCAGFHEGGRDSCQGDSGGPHVTEVEGTSFLTGIISWGEECAMKGKYGIYTKVSEYVNWIKEKTKLT
For B11, in the data set with Factor X (FX), P00742, the catalytic constant (kcat) (usually the number of substrate molecules converted per active site and unit of time at saturation) was 14.6 s⁻¹; the kcat/KM was 5.6e+08 M⁻¹ s⁻¹. Also, in data set [1], the “catalytic activity (kcat/KM)” value is recorded as “improved activity when combined with other mutations”.
